Test results taken from patent US20250032605A1.

Legend:
[1] = target: SARS-2^hg monomer (hyperglycosylated SARS-2 RBD) (SARS-CoV-2 (engineered)) (UniProt P0DTC2)
[2] = target: rsYNLF-34C (v2 resurfaced YNLF_34C RBD carrying SARS-2 residues 401-507) (bat sarbecovirus YNLF_34C; SARS-CoV-2)
[3] = target: SARS-2^hg monomer (hyperglycosylated SARS-2 RBD) (SARS-CoV-2 (engineered)) (UniProt P0DTC2); assay: BLI, Fab on FAB2G sensor, hyperglycosylated construct as analyte

Question: How did the Kd [1] turn out when B38 Fab was run?
Answer: 2.1 µM

Question: What about the Kd [2] of the same substance?
Answer: 1.4 µM

Question: And the fold decrease in affinity for B38 [3]?
Answer: 2 fold
